Data published in publication PMC4169507.
Positions count from the first letter of the chain named. In names and notes the source's numbering stands.

B1: AafA, major subunit of AAF/II, on wild type EAEC 042 Q43A (protein)
chain: VAKTATSTITVVNFCDITITPATNRDVNVDRSANIDLSFTIRAPQRCADAGMRIKAWGEANHGQLLIKPQGGNKSAGFTLASPRFSYIPNNPANIMNGFVLTNPGVYQLGMQGSITPAIPLRPGLYEVVLNAELVTN
B2: AafA, major subunit of AAF/II, on wild type EAEC 042 T18I (protein)
chain: B1 chain with T18I, A43Q

Target: fibronectin, P02751
Sequence (P02751 32-2477): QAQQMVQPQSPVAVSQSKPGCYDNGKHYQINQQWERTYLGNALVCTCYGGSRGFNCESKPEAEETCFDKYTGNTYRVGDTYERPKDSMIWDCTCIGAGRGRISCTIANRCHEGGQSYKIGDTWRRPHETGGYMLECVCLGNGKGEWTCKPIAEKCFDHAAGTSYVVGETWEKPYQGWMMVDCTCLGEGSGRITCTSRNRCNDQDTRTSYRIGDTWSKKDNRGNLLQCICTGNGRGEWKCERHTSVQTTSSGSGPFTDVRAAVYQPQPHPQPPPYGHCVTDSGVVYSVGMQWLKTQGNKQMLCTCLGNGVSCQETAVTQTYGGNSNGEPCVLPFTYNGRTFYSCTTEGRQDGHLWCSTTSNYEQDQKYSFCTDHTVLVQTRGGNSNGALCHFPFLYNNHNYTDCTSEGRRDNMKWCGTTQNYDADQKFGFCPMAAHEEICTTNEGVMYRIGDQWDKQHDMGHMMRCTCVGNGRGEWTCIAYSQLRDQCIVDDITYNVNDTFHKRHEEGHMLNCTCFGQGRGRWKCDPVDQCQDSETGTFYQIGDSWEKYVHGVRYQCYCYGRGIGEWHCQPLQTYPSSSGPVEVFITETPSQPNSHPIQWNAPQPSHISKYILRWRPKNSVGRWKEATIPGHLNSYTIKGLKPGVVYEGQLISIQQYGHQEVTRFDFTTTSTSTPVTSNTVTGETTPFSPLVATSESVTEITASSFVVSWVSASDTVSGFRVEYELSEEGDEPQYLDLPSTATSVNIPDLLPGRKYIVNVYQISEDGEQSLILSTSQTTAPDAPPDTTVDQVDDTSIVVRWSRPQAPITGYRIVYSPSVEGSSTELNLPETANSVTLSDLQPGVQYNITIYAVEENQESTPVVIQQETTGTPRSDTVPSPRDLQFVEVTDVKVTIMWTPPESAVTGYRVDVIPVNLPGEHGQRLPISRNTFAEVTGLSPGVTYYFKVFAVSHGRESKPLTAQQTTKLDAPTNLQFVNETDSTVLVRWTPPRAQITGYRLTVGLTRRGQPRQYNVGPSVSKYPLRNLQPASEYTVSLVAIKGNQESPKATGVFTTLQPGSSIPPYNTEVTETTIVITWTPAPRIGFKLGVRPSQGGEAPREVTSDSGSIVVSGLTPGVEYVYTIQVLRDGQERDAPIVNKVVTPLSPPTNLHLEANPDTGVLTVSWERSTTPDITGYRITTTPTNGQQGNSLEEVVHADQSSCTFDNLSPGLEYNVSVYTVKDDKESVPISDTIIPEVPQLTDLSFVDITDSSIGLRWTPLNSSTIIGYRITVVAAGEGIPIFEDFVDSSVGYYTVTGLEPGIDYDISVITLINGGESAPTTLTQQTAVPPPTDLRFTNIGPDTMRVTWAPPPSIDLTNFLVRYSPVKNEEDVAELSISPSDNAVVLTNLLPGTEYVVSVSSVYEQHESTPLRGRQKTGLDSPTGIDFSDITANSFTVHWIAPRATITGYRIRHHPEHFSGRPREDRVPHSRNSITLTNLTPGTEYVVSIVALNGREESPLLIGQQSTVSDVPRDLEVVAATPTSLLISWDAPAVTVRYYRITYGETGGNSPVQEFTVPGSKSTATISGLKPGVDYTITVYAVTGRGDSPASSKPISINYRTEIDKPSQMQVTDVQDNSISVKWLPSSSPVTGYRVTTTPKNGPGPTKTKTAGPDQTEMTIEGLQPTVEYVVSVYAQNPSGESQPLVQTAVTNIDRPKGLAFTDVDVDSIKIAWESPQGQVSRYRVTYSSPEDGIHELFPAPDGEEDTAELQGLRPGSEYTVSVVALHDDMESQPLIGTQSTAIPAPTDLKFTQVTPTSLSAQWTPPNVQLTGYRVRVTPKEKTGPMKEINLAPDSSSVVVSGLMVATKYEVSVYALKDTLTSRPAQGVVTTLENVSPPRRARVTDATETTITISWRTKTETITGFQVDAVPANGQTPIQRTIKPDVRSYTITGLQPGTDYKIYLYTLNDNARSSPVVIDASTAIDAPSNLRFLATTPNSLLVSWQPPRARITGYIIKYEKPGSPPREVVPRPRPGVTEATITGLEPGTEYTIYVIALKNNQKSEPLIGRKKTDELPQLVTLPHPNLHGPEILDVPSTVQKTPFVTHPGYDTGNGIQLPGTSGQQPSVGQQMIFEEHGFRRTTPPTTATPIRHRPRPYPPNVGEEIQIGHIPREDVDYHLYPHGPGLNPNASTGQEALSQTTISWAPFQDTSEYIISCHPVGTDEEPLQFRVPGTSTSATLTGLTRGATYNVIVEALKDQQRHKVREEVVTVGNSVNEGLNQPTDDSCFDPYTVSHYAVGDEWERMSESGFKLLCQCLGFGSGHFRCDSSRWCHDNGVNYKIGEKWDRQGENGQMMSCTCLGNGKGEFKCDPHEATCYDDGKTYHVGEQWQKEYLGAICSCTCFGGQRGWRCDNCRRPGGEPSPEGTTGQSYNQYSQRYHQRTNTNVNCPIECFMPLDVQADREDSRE
Assay: bacterial adherence to fibronectin-coated 96-well plates (colony counting)
Conditions: chain shown with the change; plates coated with 25 µg/ml of fibronectin; in the presence of arabinose; parent: 100; read off a plot

Binder | percent of parent (% of binding to Fn)
B1 | 110
B2 | 65
